Measurements taken from patent US20220089698A1 (published 2022).
Where a chain is given by its changes, count along the chain named.

B1: 1.1.35-1 (antibody, human IgG1, kappa, V domains shown)
VH: QVQLLQSGAAVTKPGASVRVSCEASGYNIRDYFIHWWRQAPGQGLQWVGWINPKTGQPNNPRQFQGRVSLTRHASWDFDTFSFYMDLKALRSDDTAVYFCARQRSDYWDFDVWGSGTQVTVSS
VL: DIQMTQSPSSLSASVGDRVTITCQANGYLNWYQQKPGKAPKLLIYDGSNLETGVPSRFSGSRWGQEYTLTISSLQPEDIATYFCQVYEFVGPGTNLDIKR
B2: 1.33.35-1 (antibody, human IgG1, kappa, V domains shown)
VH: B1 VH with L5V, A10E, T12K, E23K, S69T, V97T
VL: B1 VL
B3: 1.34.35-1 (antibody, human IgG1, kappa, V domains shown)
VH: B1 VH with L5V, A10E, T12K, E23K, S69T, S105T
VL: B1 VL
B4: 1.32.35-1 (antibody, human IgG1, kappa, V domains shown)
VH: B1 VH with L5V, A10E, S105T
VL: B1 VL
B5: 1.35.35-1 (antibody, human IgG1, kappa, V domains shown)
VH: QVQLVQSGAEVKKPGASVRVSCKASGYNIRDYFMHWWRQAPGQGLQWVGWINPKTGQPNNPRQFQGRVTMTRHASWDFDTFSFYMDLSRLRSDDTATYFCARQRTDYWDFDVWGQGTMVTVSS
VL: B1 VL
B6: 1.36.35-1 (antibody, human IgG1, kappa, V domains shown)
VH: B5 VH with F83A
VL: B1 VL
B7: 1.31.35-1 (antibody, human IgG1, kappa, V domains shown)
VH: B1 VH with L5V, A10E, V97T
VL: B1 VL
B8: 1.32.33-1 (antibody, human IgG1, kappa)
heavy: QVQLVQSGAEVTKPGASVRVSCEASGYNIRDYFIHWWRQAPGQGLQWVGWINPKTGQPNNPRQFQGRVSLTRHASWDFDTFSFYMDLKALRSDDTAVYFCARQRTDYWDFDVWGSGTQVTVSSASTKGPSVFPLAPSSKSTSGGTAALGCLVKDYFPEPVTVSWNSGALTSGVHTFPAVLQSSGLYSLSSVVTVPSSSLGTQTYICNVNHKPSNTKVDKKVEPKSCDKTHTCPPCPAPELLAGPDVFLFPPKPKDTLMISRTPEVTCVVVDVSHEDPEVKFNWYVDGVEVHNAKTKPREEQYNSTYRVVSVLTVLHQDWLNGKEYKCKVSNKALPLPEEKTISKAKGQPREPQVYTLPPSREEMTKNQVSLTCLVKGFYPSDIAVEWESNGQPENNYKTTPPVLDSDGSFFLYSKLTVDKSRWQQGNVFSCSVLHEALHSHYTQKSLSLSPGK
light: DIQMTQSPSSLSASVGDTVTITCQANGYLNWYQQRRGKAPKLLIYDGSNLERGVPSRFSGRRWGQEYTLTISSLQPEDIATYFCQVYEFVVPGTNLDIKRTVAAPSVFIFPPSDEQLKSGTASVVCLLNNFYPREAKVQWKVDNALQSGNSQESVTEQDSKDSTYSLSSTLTLSKADYEKHKVYACEVTHQGLSSPVTKSFNRGEC
B9: Antibody A-1 (antibody, human IgG1, kappa)
heavy: B8 heavy with V5L, E10A, T105S
light: B8 light with N49K, T68N, S72N, S73N, N95R, I98L
B10: 1.33.36-1 (antibody, human IgG1, kappa)
heavy: B8 heavy with T12K, E23K, S69T, V97T, T105S
light: B8 light with T18R, R35K, R36P, R52T, R61S, V91T
B11: 1.35.33-1 (antibody, human IgG1, kappa)
heavy: B8 heavy with T12K, E23K, I34M, S69T, L70M, K88S, A89R, V97T, S115Q, Q118M
light: B8 light
B12: 1.1.34-1 (antibody, human IgG1, kappa)
heavy: B8 heavy with V5L, E10A, T105S
light: B8 light with V91T, N95R
B13: 1.33.33-1 (antibody, human IgG1, kappa)
heavy: B8 heavy with T12K, E23K, S69T, V97T, T105S
light: B8 light
B14: 1.35.36-1 (antibody, human IgG1, kappa)
heavy: B8 heavy with T12K, E23K, I34M, S69T, L70M, K88S, A89R, V97T, S115Q, Q118M
light: B8 light with T18R, R35K, R36P, R52T, R61S, V91T
B15: 1.33.34-1 (antibody, human IgG1, kappa)
heavy: B8 heavy with T12K, E23K, S69T, V97T, T105S
light: B8 light with V91T, N95R
B16: 1.2.2-1 (antibody, human IgG1)
heavy: B8 heavy with V5L, T12K, T105S, Q118M
VL: DIQMTQSPSSLSASVGDTVTITCQANGYLNWYQQKPGKAPKLLIYDGSKLERGVPSRFSGRRWGQEYNLTINNLQPEDIATYFCQVYEFVVPGTKVDIK
B17: 1.36.36-1 (antibody, human IgG1, kappa)
heavy: QVQLVQSGAEVKKPGASVRVSCKASGYNIRDYFMHWWRQAPGQGLQWVGWINPKTGQPNNPRQFQGRVTMTRHASWDFDTFSAYMDLSRLRSDDTATYFCARQRTDYWDFDVWGQGTMVTVSSASTKGPSVFPLAPSSKSTSGGTAALGCLVKDYFPEPVTVSWNSGALTSGVHTFPAVLQSSGLYSLSSVVTVPSSSLGTQTYICNVNHKPSNTKVDKKVEPKSCDKTHTCPPCPAPELLAGPDVFLFPPKPKDTLMISRTPEVTCVVVDVSHEDPEVKFNWYVDGVEVHNAKTKPREEQYNSTYRVVSVLTVLHQDWLNGKEYKCKVSNKALPLPEEKTISKAKGQPREPQVYTLPPSREEMTKNQVSLTCLVKGFYPSDIAVEWESNGQPENNYKTTPPVLDSDGSFFLYSKLTVDKSRWQQGNVFSCSVLHEALHSHYTQKSLSLSPGK
light: B8 light with T18R, R35K, R36P, R52T, R61S, V91T
B18: 1.31.34-1 (antibody, human IgG1, kappa)
heavy: B8 heavy with V97T, T105S
light: B8 light with V91T, N95R
B19: 1.34.34-1 (antibody, human IgG1, kappa)
heavy: B8 heavy with T12K, E23K, S69T
light: B8 light with V91T, N95R
B20: 1.32.34-1 (antibody, human IgG1, kappa)
heavy: B8 heavy
light: B8 light with V91T, N95R
B21: 1.1.36-1 (antibody, human IgG1, kappa)
heavy: B8 heavy with V5L, E10A, T105S
light: B8 light with T18R, R35K, R36P, R52T, R61S, V91T
B22: 1.32.36-1 (antibody, human IgG1, kappa)
heavy: B8 heavy
light: B8 light with T18R, R35K, R36P, R52T, R61S, V91T
B23: 1.34.36-1 (antibody, human IgG1, kappa)
heavy: B8 heavy with T12K, E23K, S69T
light: B8 light with T18R, R35K, R36P, R52T, R61S, V91T
B24: 1.35.34-1 (antibody, human IgG1, kappa)
heavy: B17 heavy with A83F
light: B8 light with V91T, N95R
B25: 1.36.34-1 (antibody, human IgG1, kappa)
heavy: B17 heavy
light: B8 light with V91T, N95R
B26: 1.34.33-1 (antibody, human IgG1, kappa)
heavy: B8 heavy with T12K, E23K, S69T
light: B8 light
B27: 1.31.36-1 (antibody, human IgG1, kappa)
heavy: B8 heavy with V97T, T105S
light: B8 light with T18R, R35K, R36P, R52T, R61S, V91T

target: HIV gp120 Bal (HIV); assay: single-point ELISA; also: test concentration or dose not given here

| Binder | ELISA (A450) |
| --- | --- |
| B1 | 0.96 |
| B2 | 1.03 |
| B3 | 0.94 |
| B4 | 0.89 |
| B5 | 0.88 |
| B6 | 0.89 |
| B7 | 0.9 |
| B8 | 0.93 |
| B9 | 0.91 |
| B10 | 0.94 |
| B11 | 0.9 |
| B12 | 0.9 |
| B13 | 1.09 |
| B14 | 0.85 |
| B15 | 0.95 |
| B16 | 0.91 |
| B17 | 1.12 |
| B18 | 0.76 |
| B19 | 0.89 |
| B20 | 0.81 |
| B21 | 0.93 |
| B22 | 0.92 |
| B23 | 0.94 |
| B24 | 1 |
| B25 | 1.01 |
| B26 | 1.1 |
| B27 | 1.06 |

target: HIV gp120 CAAN (HIV); assay: single-point ELISA; also: test concentration or dose not given here

| Binder | ELISA (A450) |
| --- | --- |
| B1 | 0.75 |
| B2 | 0.81 |
| B3 | 0.77 |
| B4 | 0.59 |
| B5 | 0.67 |
| B6 | 0.36 |
| B7 | 0.77 |
| B8 | 0.68 |
| B9 | 1.06 |
| B10 | 0.82 |
| B11 | 0.91 |
| B12 | 0.96 |
| B13 | 1.06 |
| B14 | 0.67 |
| B15 | 0.95 |
| B16 | 0.8 |
| B17 | 0.34 |
| B18 | 0.86 |
| B19 | 0.88 |
| B20 | 0.86 |
| B21 | 0.88 |
| B22 | 0.64 |
| B23 | 0.71 |
| B24 | 0.85 |
| B25 | 0.43 |
| B26 | 1.04 |
| B27 | 0.9 |
